Substrate in this series: O=C1C(Cl)=CC(=Nc2ccc(O)cc2)C=C1Cl
The experiment in a line: purified protein. It is filed as biochemical, Phanerodontia chrysosporium. To be noted: 500 µM cellobiose, 50 mM sodium acetate pH 4.5, electron acceptor.

B1: PcCDHTr (Phanerodontia chrysosporium) (protein)
chain: QSASQFTDPTTGFQFTGITDPVHDVTYGFVFPPLATSGAQSTEFIGEVVAPIASKWIGIALGGAMNNDLLLVAWANGNQIVSSTRWATGYVQPTAYTGTATLTTLPETTINSTHWKWVFRCQGCTEWNNGGGIDVTSQGVLAWAFSNVAVDDPSDPQSTFSEHTDFGFFGIDYSTAHSANYQNYLNGDSGNPTTTSTKPTSTSSSVTTGPTVSATPYDYIIVGAGPGGIIAADRLSEAGKKVLLLERGGPSTKQTGGTYVAPWATSSGLTKFDIPGLFESLFTDSNPFWWCKDITVFAGCLVGGGTSVNGALYWYPNDGDFSSSVGWPSSWTNHAPYTSKLSSRLPSTDHPSTDGQRYLEQSFNVVSQLLKGQGYNQATINDNPNYKDHVFGYSAFDFLNGKRAGPVATYLQTALARPNFTFKTNVMVSNVVRNGSQILGVQTNDPTLGPNGFIPVTPKGRVILSAGAFGTSRILFQSGIGPTDMIQTVQSNPTAAAALPPQNQWINLPVGMNAQDNPSINLVFTHPSIDAYENWADVWSNPRPADAAQYLANQSGVFAGASPKLNFWRAYSGSDGFTRYAQGTVRPGAASVNSSLPYNASQIFTITVYLSTGIQSRGRIGIDAALRGTVLTPPWLVNPVDKTVLLQALHDVVSNIGSIPGLTMITPDVTQTLEEYVDAYDPATMNSNHWVSSTTIGSSPQSAVVDSNVKVFGTNNLFIVDAGIIPHLPTGNPQGTLMSAAEQAAAKILALAGGP
notes: full two-domain flavocytochrome, native signal peptide (cleaved), untagged, secreted by Trichoderma reesei delta-xyr1; 83 kDa by SDS-PAGE
As for B1, the Km (as a rule, the concentration of substrate that gives half-maximal velocity) turned out to be 4.31 ± 0.11 µM; the kcat – broadly, the maximal rate divided by the concentration of active sites – worked out at 24.4 ± 0.2 s⁻¹; the kcat/Km – broadly, the turnover number divided by the Michaelis constant – was found to be 5.66e+06 ± 159000 M⁻¹ s⁻¹.

For the origin of these results see article PMC7789494.
